Laboratory results reported in paper PMC11091976, “Shorter Peptide Nucleic Acid Probes Improve Affibody-Mediated Peptide Nucleic Acid-Based Pretargeting” (ACS Pharmacology & Translational Science, 2024).

Tests used:
BT-474 cells = assay: Cellular processing and retention (acid wash), BT-474; assay type: cell-based, human; conditions: BT-474 pretreated with 1 nM nonlabeled Z-HP9; labeled secondary probe 10 nM; n = 3
Protocol: (§1) After a 24 h incubation period, the total cell-associated bound activity was recorded as 72.0 ± 1.7 and 65.2 ± 1.8% for [^177Lu]Lu-Z-HP9, and 74.5 ± 0.2 and 55.6 ± 2.4% for [^177Lu]Lu-Z-HP12 on SKOV-3 and BT-474 cells, respectively. The internalized fractions were quantified as 9.7 ± 1.1 and 10.4 ± 0.6% for [^177Lu]Lu-Z-HP9 and [^177Lu]Lu-Z-HP12 after 24 h of incubation. The pattern was similar for both HER2-expressing cell lines, with slow internalization, which is typical for affibody molecules.
(§2) Figure 5 Cellular processing and retention of [^177Lu]Lu-Z-HP9 (A,B), [^177Lu]Lu-Z-HP12 (C,D), [^177Lu]Lu-HP16 (E,F), and [^177Lu]Lu-HP20 (G, H) on SKOV-3 (A,C,E,G) and BT-474 (B,D,F,H) cells after interrupted incubation with labeled compounds. […] The data are presented as an average value from three samples ±SD.
(§3) The pattern of internalization of the labeled secondary probes by cancer cells, which were pretreated with primary probes, was similar to the pattern for primary agents. […]
(§4) A validated acid-wash method[53] was used for cellular processing and retention of radiolabeled probes by SKOV-3 and BT-474 using interrupted incubation procedure. […] The radioactivity in each fraction was measured using an automated gamma spectrometer. The radioactivity of acidic and alkaline fractions was considered as membrane and internalized parts, respectively. […]

in vivo = assay: in vivo; design: species or system BALB/C nu/nu mice; conditions: female, BALB/C nu/nu, mouse, total radioactivity
Excerpt: Animal studies were planned in agreement with EU Directive 2010/63/EU for animal experiments and Swedish national legislation concerning the protection of laboratory animals and were approved by the Ethics Committee for Animal Research in Uppsala, Sweden (animal permission C4/16). HER2-positive xenografts were implanted by subcutaneous injection of 10^7 SKOV-3 cells in the right hind legs of female BALB/C nu/nu mice. Three weeks after implantation, mice were randomized into 8 groups, with 4 mice in each group. At the time of the experiment, the average animal weight was 20 ± 1 g. The average tumor weight was 0.26 ± 0.14 g. The mice were euthanized at predetermined time points by overdose of Ketamine/Xylazine anesthesia, followed by heart puncture. The organs of interest such as blood, lung, liver, spleen, kidney, muscle, bone, and tumor were collected, weighed, and subsequently their radioactivity was measured. Organs and tumor uptake were calculated as the percentage of the injected dose per gram of the sample (%ID/g).
To evaluate in vivo specificity, 2 groups of mice were injected with [^177Lu]Lu-HP16 and [^177Lu]Lu-HP20 without preinjection of the primary agent. At 4 h postinjection, the mice were euthanized and treated as mentioned above.
Table S2. Comparative biodistribution of [177Lu]Lu-HP16 and [177Lu]Lu-HP20 in BALB/C nu/nu mice bearing SKOV3
xenografts at 4 h post-injection without pre-injection of a primary agent. Data are presented as an average of %ID/g ± SD, n
*Significant (p<0.05) difference; **The gastrointestinal (GI) and carcass data are expressed as %ID per whole sample.

[1] = test system: HER2-expressing cell lines pretreated with Z-HP9; assay: In vitro pretargeting specificity of secondary probes; assay type: cell-based, human; conditions: Z-HP9 1 nM, labeled secondary probe 10 nM, 1 h 37 °C; n = 3
Protocol: Figure 4 In vitro binding specificity of primary agents, (A) [^177Lu]Lu-Z-HP9 and (B) [^177Lu]Lu-Z-HP12 on SKOV-3 and BT-474 cell lines. […] In the second and third groups, cells were incubated with a large amount of unlabeled anti-HER2 ZHER2:342 affibody molecule and unlabeled secondary agent before the addition of radiolabeled secondary agent, respectively. A radiolabeled secondary agent was added directly to cells in the fourth group without adding a primary agent. The data are presented as an average value from three samples ±SD.
Figure 4C,D further elucidates the specificity of PNA-mediated pretargeting on HER2-expressing cell lines when cells were pretreated with a primary agent. […] These findings collectively affirm the success of the in vitro pretargeting approach.
Thereafter, ^177Lu-secondary probe (10 nM) was added, and cells were incubated for 1 h at 37 °C. After that, cells were treated as mentioned above. […] Then, a radiolabeled secondary probe (10 nM) was added and incubated for 1 h at 37 °C. Further treatment was the same as pretargeting group. […] Further treatment was the same as mentioned above. To evaluate unspecific binding, the radiolabeled secondary probe (10 nM) was added to the cells without any pretreatment with the primary agent and incubated for 1 h at 37 °C. After incubation, the cells were washed and treated as mentioned above.

SKOV-3 cells = assay: Cellular processing and retention (acid wash), SKOV-3; assay type: cell-based, human; conditions: SKOV-3 pretreated with 1 nM nonlabeled Z-HP9; labeled secondary probe 10 nM; n = 3
Protocol: as §1, §2, §3, §4

Row | SMILES | total cell-associated bound activity after 24 h (BT-474 cells) [%] | tissue uptake at 4 h (in vivo; Blood) [%ID/g] | tissue uptake at 4 h (in vivo; Bone) [%ID/g] | tissue uptake dose at 4 h (in vivo; Carcass) [%ID] | tissue uptake dose at 4 h (in vivo; GI) [%ID] | tissue uptake at 4 h (in vivo; Kidney) [%ID/g] | tissue uptake at 4 h (in vivo; Liver) [%ID/g] | tissue uptake at 4 h (in vivo; Lung) [%ID/g] | tissue uptake at 4 h (in vivo; Muscle) [%ID/g] | tissue uptake at 4 h (in vivo; Spleen) [%ID/g] | tissue uptake at 4 h (in vivo; Tumour) [%ID/g] | binding to Z-HP9 pretreated cells relative to other treated groups [1] [fold] | total cell-associated bound activity after 24 h (SKOV-3 cells) [%]
1 | NC(=O)[C@H](Cc1ccc(O)cc1)NC(=O)[C@H](CCC(=O)O)NC(=O)[C@H](CCC(=O)O)NC(=O)CN(CCNC(=O)CN(CCNC(=O)CN(CCNC(=O)CN(CCNC(=O)CN(CCNC(=O)CN(CCNC(=O)CN(CCNC(=O)CN(CCNC(=O)[C@H](CO)NC(=O)[C@H](CO)NC(=O)COCCOCCNC(=O)CN1CCN(CC(=O)O)CCN(CC(=O)O)CCN(CC(=O)O)CC1)C(=O)Cn1cnc2c(N)ncnc21)C(=O)Cn1ccc(N)nc1=O)C(=O)Cn1cnc2c(N)ncnc21)C(=O)Cn1ccc(N)nc1=O)C(=O)Cn1ccc(N)nc1=O)C(=O)Cn1cnc2c(N)ncnc21)C(=O)Cn1cnc2c(=O)[nH]c(N)nc21)C(=O)Cn1cnc2c(=O)[nH]c(N)nc21 [[^177Lu]Lu-HP20, metal not drawn] | 42.2 ± 2.0 | 0.01 ± 0.004 | 0.03 ± 0.02 | 1.1 ± 0.34 | 1.25 ± 1.06 | 4.86 ± 0.85 | 0.15 ± 0.01 | 0.07 ± 0.01 | 0.02 ± 0.01 | 0.07 ± 0.01 | 0.11 ± 0.03 | 11 | 52.8 ± 0.4
2 | NC(=O)[C@H](Cc1ccc(O)cc1)NC(=O)[C@H](CCC(=O)O)NC(=O)[C@H](CCC(=O)O)NC(=O)CN(CCNC(=O)CN(CCNC(=O)CN(CCNC(=O)CN(CCNC(=O)CN(CCNC(=O)CN(CCNC(=O)CN(CCNC(=O)CN(CCNC(=O)CN(CCNC(=O)[C@H](CO)NC(=O)[C@H](CO)NC(=O)COCCOCCNC(=O)CN1CCN(CC(=O)O)CCN(CC(=O)O)CCN(CC(=O)O)CC1)C(=O)Cn1cnc2c(N)ncnc21)C(=O)Cn1cnc2c(N)ncnc21)C(=O)Cn1ccc(N)nc1=O)C(=O)Cn1cnc2c(N)ncnc21)C(=O)Cn1ccc(N)nc1=O)C(=O)Cn1ccc(N)nc1=O)C(=O)Cn1cnc2c(N)ncnc21)C(=O)Cn1cnc2c(=O)[nH]c(N)nc21)C(=O)Cn1cnc2c(=O)[nH]c(N)nc21 [[^177Lu]Lu-HP16, metal not drawn] | 26.1 ± 1.2 | 0.02 ± 0.02 | 0.04 ± 0.01 | 1.49 ± 0.42 | 0.61 ± 0.16 | 4.41 ± 0.61 | 0.13 ± 0.01 | 0.1 ± 0.03 | 0.05 ± 0.02 | 0.08 ± 0.01 | 0.09 ± 0.01 | 11 | 55.0 ± 1.0
